The source of these data is patent US8470587B2, “129Xe biosensors and their use” (The Trustees of the University of Pennsylvania, priority 2006, dated 2013).

Data set [1] has as its target T1, MMP-7 (Homo sapiens, UniProt P09237).
T1 construct: BIOMOL International LP, MMP-7 (recombinant, catalytic domain); purchased BIOMOL International LP
T1 sequence (P09237 95-267): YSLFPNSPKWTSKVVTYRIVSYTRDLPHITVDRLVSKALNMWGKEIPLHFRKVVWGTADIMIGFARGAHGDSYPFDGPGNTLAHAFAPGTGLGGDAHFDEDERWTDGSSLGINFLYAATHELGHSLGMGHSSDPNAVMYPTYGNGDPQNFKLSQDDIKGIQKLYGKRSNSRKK
The experiment in a line: fluorometric MMP-7 enzymatic assay (Trp fluorescence). Type of data set: biochemical. On the procedure: Fluorescence spectra of I and II dissolved in standard buffer (λex=295 nm) were measured in small volume, 1-cm pathlength quartz cuvettes at 298 K using a Varian Cary Eclipse fluorescence spectrophotometer operated with the Cary Eclipse Bio software package (1 nm steps, 5 nm excitation and emission slits). Kinetics data were collected at 30 s intervals using the same software on samples with controlled temperature and stirring.
For the fluorometric enzymatic assay, an aliquot (2 μL) of active MMP-7 (0.454 μg/μL) was added into 0.998 mL solution of ^129Xe biosensor I with known concentration at 298 K. Fluorescence spectra were collected from 310-450 nm. All reported fluorescence data are uncorrected and are roughly 5 nm red-shifted from the values obtained when the instrumental correction feature is employed. Trp fluorescence at 400 nm was analyzed as a function of time, since there was little contribution at this wavelength from monopropargyl-cryptophane-A fluorescence. The enzyme activity was calculated from the initial rate of decrease in Trp emission at 400 nm, over the time interval that corresponded to the first 10-15% completion of the reaction. The kcat/KM value for biosensor I was calculated by non-linear regression of the activity data by varying the biosensor concentration from 6-100 μM; double-reciprocal 1/v versus 1/[S] Lineweaver-Burk plots^49 gave a similar kcat/KM value.
In enzyme kinetics studies, the fluorescence spectrum of I was taken at 30 s intervals after addition of MMP-7 (FIG. 7b). A continuous decrease of Trp emission was observed. The change in fluorescence intensity at 400 nm was used to calculate the initial velocity (v) of the enzyme reaction. The v values determined by HPLC and fluorometric methods were in excellent agreement (Table 1), which validated using the fluorometric assay to monitor this enzyme reaction. The Trp fluorescence assays were easier to run, allowed continuous monitoring of the reaction, provided greater sensitivity, and required less material than HPLC-based UV-vis absorbance measurements.

Data set [2] addresses T1, MMP-7. The data set is described as follows: MMP-7 enzyme kinetic parameters, Michaelis-Menten fit of initial velocities. Type of data set: biochemical. On the procedure: (§1) At rt, an aliquot (2 μL) of active MMP-7 (0.454 μg/μL) was added into 0.998 mL of a freshly prepared solution of biosensor I at a known concentration in standard buffer. The extinction coefficient of I, ε=15,000 M^−1 cm^−1 at 280 nm in water, was determined from a solution containing the weighed sample. At approximately 3 min intervals, 70 μL aliquots were removed from the reaction mixture and immediately quenched with 30 μL of a 40 mM EDTA solution. Each aliquot was analyzed by HPLC with the gradient: time 0, A/B=75/25; 0-30 min, linear increase to A/B=45/55; 30-32 min, linear change to A/B=20/80; 32-42 min, A/B=20/80. The retention times for I and II were 15.6 min and 17.9 min, respectively. The enzyme activity was determined from the initial rate of increase in the concentration of cleaved sensor II, during the consumption of the first 10-15% of substrate I. The absorbance at 280 nm of the growing peak at 17.9 min was integrated and compared for each time point. Initial velocities were measured at substrate I concentrations of 6, 16, 28, 38, 48, 74 and 100 μM.
The kcat/KM value for all peptide substrates was calculated based on the Michaelis-Menten equation (Equation 1) after fitting the activity data at varying substrate concentrations with a non-linear regression curve: […]
(§2) For the azidopeptide substrate 1, enzyme activity was determined similarly by HPLC with the gradient: time 0, A/B=90/10; 0-30 min, linear increase to A/B=60/40; 30-32 min, linear change to A/B=20/80; 32-42 min, A/B=20/80. Peak areas were monitored for the intact substrate 1 and cleaved hexapeptide product 3 at retention times of 17.0 and 10.3 min, respectively. Initial velocities were measured at substrate 1 concentrations of 6, 50, 100, and 870 μM.
For the fluorometric enzymatic assay, an aliquot (2 μL) of active MMP-7 (0.454 μg/μL) was added into 0.998 mL solution of ^129Xe biosensor I with known concentration at 298 K. Fluorescence spectra were collected from 310-450 nm. […]

Data set [3] has as its target T1, MMP-7. The data set is described as follows: MMP-7 enzymatic assay monitored by HPLC (UV-vis). Type of data set: biochemical. On the procedure: as §1, §2
The ability of MMP-7 to hydrolyze ^129Xe biosensor I was initially confirmed by HPLC analysis (FIG. 3a). A standard assay was performed by incubating a 1 mL reaction mixture of 32 nmol I and 42 pmol MMP-7 at 310 K. Reaction progress was monitored by analyzing aliquots of the reaction mixture at regular intervals. […] MALDI-TOF mass spectrometry identified these new peaks as the cleaved hexapeptide LWRSRK 3 and cryptophane-peptide product II, respectively. The peptide cleavage pattern agreed with previous assays using this substrate. […]

Data set [4] can be described thus: concentration dependence of fluorescence intensity (aggregation). Type of data set: physicochemical. The following applies: fluorescence intensity linear over 1-250 μM, standard buffer. As to the method:
Solutions were at room temperature in standard buffer. The fluorescence intensity for each compound at a given wavelength and concentration was normalized to its value at the maximum biosensor concentration, in order to facilitate comparison and show linearity over a large concentration range.
Experiments were performed to identify the important contributions to the observed Trp fluorescence quenching. In the fully extended biosensor I (FIG. 1) cryptophane and Trp were separated by approximately 40 Å. Temperature dependence studies identified little contribution to Trp quenching from the cryptophane within the intact biosensor I. The observed decrease in Trp fluorescence at elevated temperatures (λem=358 nm, F/F0=0.3 at 353 K) was virtually identical to that seen with the Trp-containing hexapeptide 3, and was thus attributed to temperature-dependent solvent quenching by non-radiative decay processes. […] This was confirmed with I and II by comparing the concentration dependence of fluorescence intensity (λex=295 nm, λem=318 nm for cryptophane and λem=358 nm for Trp), after correcting for inner filter effects and dilution. Neither compound's fluorescence intensity deviated from linearity over the concentration range, 1-250 μM (FIG. 8). The absorption and fluorescence maxima were unchanged over this range.

For data set [5], the system named is Trp-containing hexapeptide LWRSRK 3. The data set is described as follows: Stern-Volmer fluorescence quenching of hexapeptide 3 by cleaved biosensor II. Type of data set: binding. The following applies: 3 at 16 μM, II 0-120 μM, 298 K, standard buffer; listed as II. On the procedure:
Solution of 3 was titrated with 3.18 mM II, to achieve concentrations of II between 0 and 120 μM. Steady-state fluorescence measurements found the ratio of initial fluorescence, F0, to observed fluorescence, F, at each quencher concentration. The linear fit gave an R^2 value of 0.88, which indicated a dominant static quenching mechanism. The slope of this line gave the association constant, KS=9000 M^−1, for the II-3 complex.
Having ruled out a prevalent role for intra- and intermolecular interactions within or between biosensors, we sought further to explain the decrease in Trp fluorescence upon enzymatic cleavage. […] To examine this quenching mechanism, the steady-state fluorescence intensity of the hexapeptide LWRSRK 3 was measured as a function of the cleaved sensor II (putative quencher) concentration in standard buffer. This Stern-Volmer experiment could only be performed within a limited range of II concentrations, due to limitations in the quantity of material and the contribution of this compound to total fluorescence. […] All fluorescence spectra were corrected to remove contributions from cryptophane. The resulting fluorescence maximum at 358 nm, which corresponded to Trp emission of I, decreased with successive additions of II. […]

In data set [6] the target is T1, MMP-7. The conditions noted are these: reported previously at 303 K; cited from earlier work.
The target in the next data set is T2, hexapeptide LWRSRK.
T2 sequence (peptide): LWRSRK
The data set is described as follows: Stern-Volmer steady-state Trp fluorescence quenching; hexapeptide 3 (16 µM) titrated with II (0-120 µM), 298 K, standard buffer.

Setting [7] is: MMP-7 42 nM, 298 K, standard buffer.

“And” between values parts separate entries of the source, which are not always exact repeats. Identical values can stand only once. Like-named read-outs stand apart in the source and are kept apart here. * marks the point of attachment. monopropargyl‑cryptophane‑A = monopropargyl-cryptophane-A, coupled to the azido-peptide by Cu(I)-mediated coupling; 3‑azidopropionyl = [N-]=[N+]=NCCC(=O)*

Usually Km stands for the concentration of substrate that gives half-maximal velocity. The Vmax is the rate approached at saturating substrate. Consider “Biosensor I: monopropargyl-cryptophane-A 7 coupled by [3+2] cycloaddition to azidopeptide 1 (RKRPLALWRSRK); MMP-7-responsive 129Xe biosensor ({monopropargyl‑cryptophane‑A (triazole via Cu(I) (3+2) cycloaddition)-3‑azidopropionyl}-RKRPLALWRSRK-OH)”, for which the entries for the “Initial velocity, fluorometric assay” value with MMP-7 [1] (Biosensor I 6 μM), with MMP-7 [1] (Biosensor I 50 μM) and in the data set with MMP-7 [1] (Biosensor I 100 μM) were 0.9 pmol/s, 9 pmol/s and 8 pmol/s, respectively. Besides, the “fold lower Vmax relative to substrate 1” value with MMP-7 [2] is reported as 3.6 fold. In the data set with MMP-7 [2] (setting [7]), the Km was 43 µM. In addition, the Vmax with MMP-7 [2] (setting [7]) was determined as 1.3e-08 M/s. Also, the “Initial velocity, HPLC assay” value amounted to 1 pmol/s with MMP-7 [3] (Biosensor I 6 μM), 10 pmol/s with MMP-7 [3] (Biosensor I 50 μM) and 7 pmol/s in the data set with MMP-7 [3] (Biosensor I 100 μM). In addition, in data set [4], the aggregation in solution result is on record as “unlikely to aggregate”.

Consider “Biosensor II: monopropargyl-cryptophane-A 7 coupled to azidopeptide 2 (RKRPLA); MMP-7 cleaved product of I ({monopropargyl‑cryptophane‑A-3‑azidopropionyl (triazole link)}-RKRPLA-OH)”, for which the “association constant KS of the II-3 complex” value in data set [5] was 9000 ± 1000 M⁻¹ and 9000 M⁻¹. In data set [4], the aggregation in solution result is given as “unlikely to aggregate”.

With “dinitrophenyl-Arg-Pro-Leu-Ala-Leu-Trp-Arg-Ser”, at MMP-7 [6], the Km was 26 µM.

For the molecule {monopropargyl‑cryptophane‑A (via triazole, CuAAC)-3‑azidopropionyl}-RKRPLA-OH [cleaved biosensor II (monopropargyl-cryptophane-A coupled to azidopeptide RKRPLA)], the Ka with hexapeptide LWRSRK is 9000 M⁻¹.
